The supplement of paper PMC9170038

Tested on: MS2 coat protein
Assay: apparent KD of MS2 coat protein; designed switch direction (-1 OFF switch, 1 ON switch): -1; higher = weaker reporter binding
Procedure, shortened: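 Transcription of designed RNA switches on Illumina chips was done by stalled E. coli RNA polymerase. SNAP-549-labelled MS2 coat protein was then titrated in doubling steps from 0.7 or 1.5 nM to 3 µM, with steps of 0.8–1.5 h at the lowest and 10–20 min at the highest concentration. The per-design median over clusters of curve-fitted normalised fluorescence is reported as apparent KD.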

[1] = Eterna round: R95, input ligand: FMN 200 uM
[2] = Eterna round: R95, input ligand: microRNA oligo, concentration not stated
[3] = Eterna round: R95, input ligand: none
[4] = input ligand: microRNA oligo, concentration not stated

| Sequence | apparent KD of MS2 coat protein [1] [nM] | apparent KD of MS2 coat protein [2] [nM] | apparent KD of MS2 coat protein [3] [nM] | apparent KD of MS2 coat protein (input ligand: FMN 200 uM) [nM] | apparent KD of MS2 coat protein (input ligand: none) [nM] | apparent KD of MS2 coat protein [4] [nM] |
| --- | --- | --- | --- | --- | --- | --- |
| CUGAGCAGACGGAGAUCCAACAUGAGGAUCACCCAUGUCUCAAAAGCUUUUUGCUCAUCUUAUCGUACCUUGGUGCU [JL ViennaUCT Edcesobi mod 1] (puzzle: Sensor v3, turn-off variant 1) | 406 | 20.2 | 445 |  |  |  |
| CUGAGCAGACGGAGAUCCAACAUGAGGAUCACCCAUGUCUCAAAAGCUUUUUGCUCAUCUUAUUGUACCUUGGUGCU [JL ViennaUCT Edcesobi mod 2] (puzzle: Sensor v3, turn-off variant 1) | 391 | 17.6 | 342 |  |  |  |
| CUGAGCAGACGGAGAUCCAACAUGAGGAUCACCCAUGUCUCAGAAGCUUUUUGCUCGUCUUAUCCUCCUCUGUUCAC [Elimod 21 - Jieux - Sensor, turn-off variant 1] (Eterna round: R97, puzzle: Sensor, turn-off variant 1) |  |  |  | 103 | 119 |  |
| CUGAGCUGAGGAUAUACAUGAGGAUCACCCAUGUUUUGUAGAUAGUGAAGAAGUAGAUGUAGAAGGCAGUUCGG [Mod of JL 24 - Jieux - Exclusion 3] (Eterna round: R97, puzzle: Exclusion 3) |  |  |  | 206 | 146 |  |
| CUGAGGUAGCGGUCCUAUGACAUGAGGAUCACCCAUGUACCUUGCUACGAGCUUUUUGCUCGUCUUAUGAUUCUCGG [JL Atriat mod 4] (puzzle: Sensor v3, turn-off variant 1) | 166 | 93.9 | 250 |  |  |  |
| CUGAGGUAGCGGUCCUAUGACAUGAGGAUCACCCAUGUACCUUGCUUUGAGCUAUUUGCUCGUCUUAUGAUUCUCGG [Mat - Sensor v3 - turn-off var 1 - JL Mod - D40] (Eterna round: R96, puzzle: Sensor v3, turn-off variant 1) |  |  |  | 788 | 758 | 655 |
| CUGAGGUAGCGGUCCUAUGACAUGAGGAUCACCCAUGUACCUUGCUUUGAGCUAUUUGCUCGUCUUAUGAUUCUCGG [Mat - Sensor v3 - turn-off var 1 - JL Mod - D40] (puzzle: Sensor v3, turn-off variant 1) | 457 | 355 | 545 |  |  |  |
| CUGAGUUCAGGAUAUACAUGAGGAUCACCCAUGUAAAGUAGCUUGCGUACAGGCAGAUGUAGAAGGGAAUUCGG [Mod of JL 6 - Jieux - Exclusion 3] (Eterna round: R97, puzzle: Exclusion 3) |  |  |  | 30.2 | 19 |  |
| CUGAUGUGAGGAUAUCUAAGGCGACCAUGAGACAUGGGCCAAGAGAAGGCACAUGAGGAUCACCCAUGUACCGA [Anertees] (Eterna round: R97, puzzle: Exclusion 4) |  |  |  | 83.8 | 22.2 |  |
| CUGGUCCGAGGAUAUAUGAUGUGAAACAUGAGGAUCACCCAUGUAAUAUUAUGGAGGUAAAUAGAAGGCGGACUAG [Mat - Exclusion 5 - JL mod - D35] (puzzle: Exclusion 5) | 45.3 | 55.2 | 60 |  |  |  |
| CUGGUCCGAGGAUAUAUUAAGUGAUACAUGAGGAUCACCCAUGUAAUUUAAUGGAAAUAAAUAGAAGGCGGACUAG [Mat - Exclusion 5 - JL mod - D51] (puzzle: Exclusion 5) | 30 | 65.3 | 62.5 |  |  |  |
| CUGGUCCGAGGAUAUAUUAUGUGAUACAUGAGGAUCACCCAUGUUAUAUAAUGGAUGUAAAUAGAAGGCGGACUAG [JL-ex5-3.16] (puzzle: Exclusion 5) | 60.3 | 43.2 | 44 |  |  |  |
| CUGGUGCGCGGAGGAUAUCGGAAAGGAAGUGUACGAGAAGGUCGUUCCACCAAACAUGAGGAUCACCCAUGUAGGAGUGACCUC [PowerStrip EXNG 1.7] (Eterna round: R96, puzzle: Exclusion NG 1) |  |  |  | 127 | 62.9 | 45.6 |
| CUGUUACAUGAGGAUCACCCAUGUGAGGAUAUGGUUCGGUACUGUCCUGUCGCGUACUCCAGAAGGCACGUGUU [1st #36] (Eterna round: R97, puzzle: Exclusion 1) |  |  |  | 46.5 | 36.5 |  |
| CUUAAGUUAGGAUAUGCGCUACGGAAUCGUGGUUAUAGACAGCAGAAGGAACUUGAGGAUCACCCAAGUAAAUA [Inatsoce] (Eterna round: R97, puzzle: Exclusion 4) |  |  |  | 89.2 | 108 |  |
| CUUAGCGUAGGAUAUUAGUACAUGAACAUGAGGAUCACCCAUGUGAGGUGGGUCUUAGAUUAAGAAGGGCGAAGAA [EX5 #32] (Eterna round: R97, puzzle: Exclusion 5) |  |  |  | 221 | 249 |  |
| CUUAGGGCGGAGGAUAUGCCGUGGGCGAAUACAGUAGAAGGCCGCACUUGAGGAUCACCCAAGUAUGGUCAAAC [Inusisbeor] (Eterna round: R97, puzzle: Exclusion 6) |  |  |  | 15.4 | 13.1 |  |
| CUUAUGUCAGGAUAUGCCUGGCCGUGAGGCCAAAUUGAAUAGCAGAAGGGACAUGAGGAUCACCCAUGUCCGGG [jl-ex4-4.64 ViennaUCT mod] (Eterna round: R97, puzzle: Exclusion 4) |  |  |  | 115 | 130 |  |
| CUUCAAUCACCAGAGCUCACACUUAUACCUGCUCUGGUGACAUGAGGAUCACCCAUGUUUUUUGCCCGUCUUAUCUU [Sensor v3, turn-off variant 2 (MOD of Leso v.3)] (puzzle: Sensor v3, turn-off variant 2) | 86.6 | 33 | 97.4 |  |  |  |
| CUUCGACAUGAGGAUCACCCAUGUCAGGAUAUUGUGUAUCGGGUUUUUUACGGAAAGGCAAGAAGGGAUGUGUG [LRO-Excl1-07] (puzzle: Exclusion 1) |  | 25.4 |  |  |  |  |
| CUUCGUAUAGAGGAUAUAGGAUACUGCGGUGUCCUAGAAGGCUGUACAUGAGGAUCACCCAUGUACUUCAGAUC [Exclusion 6 - B - 14:c] (puzzle: Exclusion 6) |  | 12 |  |  |  |  |
| CUUCGUAUAGAGGAUAUAGGAUACUUCGGUGUCCUAGAAGGCUGUACAUGAGGAUCACCCAUGUACUUCAGAUC [Exclusion 6 - B - 14:b] (puzzle: Exclusion 6) |  | 11.9 |  |  |  |  |
| CUUCGUGUCAAGGAUAUACAGCAACUAUCCGGAGUAGAAGGUGGCACUUGAGGAUCACCCAAGUGCGUGGGUGU [Uszaqubi] (Eterna round: R97, puzzle: Exclusion 6) |  |  |  | 33.5 | 25.7 |  |
| CUUCGUUGUAAGGAUAUCCAGACUCUUCCUGUCGGAGAAGGUACAACAUGAGGAUCACCCAUGUUGCUACAUGG [Zaaqu] (puzzle: Exclusion 6) |  | 21.6 |  |  |  |  |
| CUUGCGGAUAAAGGAUAUUGCGGUGACCGGCUCGGCGUACCGAGCCUACAUGAGGAUCACCCAUGUAAGAAGGUUGUCGCUGGU [JL ViennaUCT Qudice mod 3] (Eterna round: R96, puzzle: Exclusion NG 2) |  |  |  | 12.9 | 14.1 | 8.45 |
